From the nanobody polyreactivity screen of Harvey et al. (2022) come the findings set out here.

The series can be described thus: yeast display, Sf9 membrane polyspecificity reagent, FACS + sequencing; frameworks hold sequencing errors. The essentials: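 A synthetic nanobody library was expressed on Saccharomyces cerevisiae BJ5465 by galactose induction for 36–48 hours. The library was stained for 1 hour at 4 °C with 10% biotinylated, detergent-solubilized Sf9 membrane reagent and enriched with streptavidin microbeads before FACS. Low and high (top ~1%) gates were set on anti-HA fluorescence for expression and streptavidin fluorescence for reagent binding, and each polyreactivity label reflects the gate of origin.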
On to “QVHLVESGGGLVQAGGSLLLSCAASGFTFTAYAMGWYRQAPGKERELVAAISYRGGRTNYAYSVKGRFTISRDNAKNTVYLQMNSLKPEDTAVYYCASRQGISTREMDYWGQGTQVTVSS”, for which the “polyreactivity (PSR sort gate)” value was “high polyreactivity”.

Take “QVHLVESGGGLVQAGGSLLLSCGASGITFVTYAMGWYRQAPGKEREFVPAISRSGGRTYYADSVKGRFTISRDNAKNTVYLQMNSLKPEDTAVYYCASDVFLLYSFTIYDYWGQGTQVTVSS”: the “polyreactivity (PSR sort gate)” value is “high polyreactivity”.

In the case of “QVHLVESGGGLVQAGGSLRISCAASGFTFRYNAMGWNRQAPGKERELVAAISRGTITNYADSVKGRFTISRDNAKNTVYLQMNSLKPEDTAVYYCAARYPGHFRFYYWGQGTQVTVSS”, the “polyreactivity (PSR sort gate)” value is reported as “high polyreactivity”.

For the sequence “QVHLVESGGGLVQAGGSLRISCAASGFTFVWYAMGWYRPPPGKERELVAALSRRGTRTYYADSVKGRFSISRDNAKNTVYLQMNSLKPEDTAVYYSAASNGYEAVTYDYWGQGTQVTVSS”, the “polyreactivity (PSR sort gate)” value was “high polyreactivity”.

Take “QVHLVESGGGLVQAGGSLRISCAASGLIFPDYTMGWYRPAPGKESELVAVITDGDSTYYADSVKGRFTISRDNAKNTVYLQMNSLKPEDTAVYYCASELDGSKYTLDYWGQGTQVTVSS”: the “polyreactivity (PSR sort gate)” value is given as “low polyreactivity”.

For the sequence “QVHLVESGGGLVQAGGSLRISCAAYGRTFRYYAMGCYRQAPAKDRELVAGISSSGDRTYFADSVKGRFTISRDTAKNTVYLQMNSLKPEDTAVYYCAADRGARGDYYWGQGTQVTVSS”, the “polyreactivity (PSR sort gate)” value is listed as “high polyreactivity”.

Take “QVHLVESGGGLVQAGGSLRISGAASGSTFGTYAMGWYRQAPGKERELVAAITSGGSTDYADSVKGRFTISRDNAKNTVYLQMNSLKPEDTAVYYCTARGYGYLGRKGGYSYGYYYWGQGNQVTVSS”: the “polyreactivity (PSR sort gate)” value is recorded as “low polyreactivity”.

Regarding “QVHLVESGGGLVQAGGSLRLICAASGFIFRQYAMGWYRQAPGKERELVAAISYRGASTYYADSVKGRFTISRDNAKNTVYLQMNSLKPEDTAVYYCADRYYNPWARVSGYDYWGQGTQVTVSS”, the “polyreactivity (PSR sort gate)” value was “high polyreactivity”.

As to “QVHLVESGGGLVQAGGSLRLRCAASGIIFRRYAMGWYRQAPGKESEFVAAIRYTGGGTYYADSVKGRFTISRDNAKNTVYLQMNSLQPEDTAVYYCAASSRVSKSHLYGYWGQGTQVTVSS”, the “polyreactivity (PSR sort gate)” value was “high polyreactivity”.

As to “QVHLVESGGGLVQAGGSLRLRCAASGSIFLLYAMGWYRQPPGKGRELVAAITYSGGRTYADSVKGRFTISRDNAKNTGYLQMISLKPEDTAVNYCATDAPAPKYDYWGQGTQVTVSS”, the “polyreactivity (PSR sort gate)” value is “low polyreactivity”.

With “QVHLVESGGGLVQAGGSLRLRCDASGSIFKPYARGWYRQAPGKERELVAGITAGGASTYYADSVKGRFTISRDNAKNTVYLQMNSLKPEDTAVYYCAAGDYQSGVRYDYWGQGTQVTVSS”, the “polyreactivity (PSR sort gate)” value is “low polyreactivity”.

For the sequence “QVHLVESGGGLVQAGGSLRLSCAAAGSTSARYAMGWYRQPPGKERELVATITRSGTTKYADSVKGRFTISRDNAKNTVYLQMNSLKPEDTAVYYCNTDTYFPLYDYWGQGTQVTVSS”, the “polyreactivity (PSR sort gate)” value is “low polyreactivity”.

On to “QVHLVESGGGLVQAGGSLRLSCAACGLTFTHYTMGWYRQAPGKERELVAAITTSGGSTYYADSLKGRFTISRDNAKKTVYLQLNSLKPEDTPVYYCAADLGGNSRLDYWGQGTQETVSS”, for which the “polyreactivity (PSR sort gate)” value was “high polyreactivity”.

Take “QVHLVESGGGLVQAGGSLRLSCAACGRTFRSNALGWYSQAPGTEREFVAALSGRGGITYFADSVTGRFSISRDNAKNTVYLQMNSLKPEDTAVDYCNRDVKFHDYVYVTGINSPGYNYWGQGTQVTVSS”: the “polyreactivity (PSR sort gate)” value was “low polyreactivity”.

On to “QVHLVESGGGLVQAGGSLRLSCAASAFTFSQYAMGWYRQAPGKERELVAVISINGGSTYYADSVKGRFTISRDNAKNTVYLQMNSLKPEDTAVYYCAADDTDSEYYGYDYWGQGTQVTVSS”, for which the “polyreactivity (PSR sort gate)” value was “low polyreactivity”.

Consider “QVHLVESGGGLVQAGGSLRLSCAASGFIFAGYTMGWYRQAPRKERELVAAINSGGSTKYADSVKGRFTISRDNAKNTVYLQMNSLKPEDTAVSYCNADYGWYFLFDYWGQGTQVTVSS”, for which the “polyreactivity (PSR sort gate)” value is given as “low polyreactivity”.

“QVHLVESGGGLVQAGGSLRLSCAASGFIFDYYAMGWYRQAPGKERELVAAITGSGGGTYYADSVKGRFTISRDNAKNTVYLQMNSLKPEDSAVYYCNAYVPYPYSSEVQDYDYWGQCTQVTVSS”: the “polyreactivity (PSR sort gate)” value is “high polyreactivity”.

For the sequence “QVHLVESGGGLVQAGGSLRLSCAASGFIFGRNAMGWYRQAPGKEREFVAALTRIGGNTYYADSVKGRFTISRDNAKNTVYLQMNSLKPEDTAVYYCAARLSYFHAYGFYWGQGTQVTVSS”, the “polyreactivity (PSR sort gate)” value is listed as “high polyreactivity”.

For the sequence “QVHLVESGGGLVQAGGSLRLSCAASGFIFLPYAMGSYRQAPGKERELVAAITRGGRTYYADSVKGRFTISRDNAKNTVYLQMNSLKPEDTAVYYCAAVVWAPFYEFYYWGQGTQVTVSS”, the “polyreactivity (PSR sort gate)” value is “low polyreactivity”.

For “QVHLVESGGGLVQAGGSLRLSCAASGFIFNVYAMGWYRQAPGKERELVAAISFSGTSTYYADSVKGRFTISRDNAKNTVYLQMNSLKPEDTAVYYCAARYWSRDQWPRSLYYWGQGTQVTVSS”, the “polyreactivity (PSR sort gate)” value was “high polyreactivity”.

As for “QVHLVESGGGLVQAGGSLRLSCAASGFIFPAYVMGWYRQAPGKERELVAVIGSGGSTSYADSVKGRFTISRDNAKNTVYLQMNSLKPEDTAVYYCTADPTWFGYVYYQYDYWGQGTKVTVSS”, the “polyreactivity (PSR sort gate)” value was “low polyreactivity”.

As to “QVHLVESGGGLVQAGGSLRLSCAASGFIFRRYAMGWYRQAPGKERELVAAITSSGTSTYYADSVKGRFTISRDNAKNTVYLQMNSLKPEDAAVYFCNRDNYVRWIREDFDYWGQGTQVTVSS”, the “polyreactivity (PSR sort gate)” value is recorded as “high polyreactivity”.

Regarding “QVHLVESGGGLVQAGGSLRLSCAASGFIYWAYAMGWYRQAPGKERELVAGITRSGGSTYYADSVKGRFTISRDNAKNTVYLQMNSLKPEDTAVYYCAADFRYNGGYWGQGTQVTVSS”, the “polyreactivity (PSR sort gate)” value was “high polyreactivity”.

For “QVHLVESGGGLVQAGGSLRLSCAASGFTCGYNAMGWYRQAPGKETELVATICGGGRTKYADSVKGRFTLSRDNAKNTVYLQMNSLKPEDTAVYYCNVVQTYYRGSYIYIKYGYWGQGTQVTVSS”, the “polyreactivity (PSR sort gate)” value is given as “high polyreactivity”.

Consider “QVHLVESGGGLVQAGGSLRLSCAASGFTFDQNAMGWYRQAPGKERELVAAISIGGSTYYADSVKGRFTISRDNAKNTVYLQMNSLKPEDTAVYYCATRNIYFSSVDYWGQGTQVTVSS”, for which the “polyreactivity (PSR sort gate)” value is “high polyreactivity”.

Regarding “QVHLVESGGGLVQAGGSLRLSCAASGFTFPLYARGLYRQAPGKERELVAVINSDGGRTYYADSVKGRFTISRDNAKYTVYLQMNSLKPEDTAVYYCATRATWYYWGQGTQVTVSS”, the “polyreactivity (PSR sort gate)” value is listed as “high polyreactivity”.

For the sequence “QVHLVESGGGLVQAGGSLRLSCAASGFTFRFYAMGCYIQAPGKERELVAAISSTGIRTYYADSLKGRFTISRDNSKNTDYLQMNSLKPEDTAVYYCAKLHRDSILDYWGQGTQVTVSS”, the “polyreactivity (PSR sort gate)” value is “high polyreactivity”.

Take “QVHLVESGGGLVQAGGSLRLSCAASGFTFRYYTMGWYRQAPGKERELVARITWSGGITYYADSVKGRFTISRDNAKNTVYLQMNSLKPEDTAVYYCNAERRWAAYDYWGQGTQVTVSS”: the “polyreactivity (PSR sort gate)” value is recorded as “high polyreactivity”.

On to “QVHLVESGGGLVQAGGSLRLSCAASGFTFVSYAMGWYRQAPGKESELVAAISWSSARTYYADSVKGRFTISRHNAKNTVYLQRNSLKPEDTAVYYCNAVRGFSSSRGGYNYWGQGTQVTVSS”, for which the “polyreactivity (PSR sort gate)” value was “high polyreactivity”.

“QVHLVESGGGLVQAGGSLRLSCAASGFTFVYYTMGWYRQAPGKERELVAAITYGGNTYYADSVKGRFTISRDNAKNTVYLQMNSLKPEDTAVYYCAARYISSYDWGQGTEVTVSS”: the “polyreactivity (PSR sort gate)” value is on record as “high polyreactivity”.

“QVHLVESGGGLVQAGGSLRLSCAASGFTFYYYAMGWYRQAPGKEREFVAAITRGGGSTYYADSVKGRFTISRDKAKNSVYLQMNSLKPEDTAVYYCAADPQSTIRDYWGQGTQVTVSS”: the “polyreactivity (PSR sort gate)” value is reported as “high polyreactivity”.

For “QVHLVESGGGLVQAGGSLRLSCAASGFTLRHNTIGGYRQSPGKERELVAAISIGGRTYYADSVKARFTISRDNAKNTGYLQMNSLKPEDTAVYYCGKLDRGQSPRYDFWGQGTQVSVSS”, the “polyreactivity (PSR sort gate)” value is recorded as “high polyreactivity”.

Turning to “QVHLVESGGGLVQAGGSLRLSCAASGFTYYKYAMGWYRQAPGKEREFVDAITPSGGSTYYADSVKGRFTISRDNAKNTVYLQMNSLKPEDTAVYYCAAYYGTSRWAKMCYWGQGTQVTVSS”, the “polyreactivity (PSR sort gate)” value was “high polyreactivity”.

With “QVHLVESGGGLVQAGGSLRLSCAASGGIFLDNAMGWYRQAPGKERELVASIRTRTYYADSVKGRFTISRDNAKNTVYLQMNSLKPEDTAVYYCAAAHRRWDGDYNYWGQGTQVTVSS”, the “polyreactivity (PSR sort gate)” value is listed as “high polyreactivity”.

Take “QVHLVESGGGLVQAGGSLRLSCAASGGIFLENAMGWYRQAPGKERELVAAISYNGGRTYYADSVKGRFTISRDNAKNTVYLQMNSLKPEDTAVYYCNAASPYYDSWGQGTQVTVSS”: the “polyreactivity (PSR sort gate)” value is reported as “high polyreactivity”.

For “QVHLVESGGGLVQAGGSLRLSCAASGGTFGYYAMGWYRPAPGKERELVAAINARGDSTYYADSVKGRFTISRDNAKNTVYFLMNSLKPEDTAVYYCNTGIALFGYKYHYWGQGTQVTVSS”, the “polyreactivity (PSR sort gate)” value was “low polyreactivity”.

“QVHLVESGGGLVQAGGSLRLSCAASGGTFQDYTMGWYRQAPGKEREFVAAISLSGTRTYYADSVKGRFTISRDNAKNTVYFQMNSLKPEDSAVYYCSTSGPQYYSRNFDYWGQATQVTVSS”: the “polyreactivity (PSR sort gate)” value is recorded as “low polyreactivity”.

Regarding “QVHLVESGGGLVQAGGSLRLSCAASGGTFYYNTMGWYRQAPGKERELVAAITSGTSTNYADSVKGRFTISRDNAKNTVYLQMNSLIPEDTAGYYCAADPDADDPRRGYDYWGQGTQVTVSS”, the “polyreactivity (PSR sort gate)” value is “low polyreactivity”.

On to “QVHLVESGGGLVQAGGSLRLSCAASGGTLYANAKGWYRQAPGKERELVATITSSSGSTSYADSVKGRFSISRDNAKNTVYLQKNSLKPEDTAVYYCAKDSHAQGPYRYIHYHHTGDYWGQGTQVTVSS”, for which the “polyreactivity (PSR sort gate)” value is reported as “low polyreactivity”.

In the case of “QVHLVESGGGLVQAGGSLRLSCAASGIIFDHYAMVWYRPAPGKERELVAAISTGGGNTYYADSLKGRFTISRDNAKNTVYLQMNSLKPEDTAVYYCNADVLWGRRWGDYYGYDYWGQGTQVTVSS”, the “polyreactivity (PSR sort gate)” value is “low polyreactivity”.

Regarding “QVHLVESGGGLVQAGGSLRLSCAASGIIFEYNAMGWYRQAPGKERELVAAITSTDNTNYADSVKGRFTISRDNAKKTVYLQMNILIPEDTAVYYCNTDYWLSVVYAMDYWGQGTQVTVSS”, the “polyreactivity (PSR sort gate)” value is recorded as “low polyreactivity”.
